The target of this assay is endogenous Raf-1 of Rat-1 cells (rat (Rat-1 cells), UniProt P11345 1-648). Kind of assay: co-immunoprecipitation of endogenous proteins with RKIP antiserum.

From patent publication US6864224 (BROWN UNIVERSITY RESEARCH FOUNDATION, dated 2005) come the findings set out here.

Description: For co-precipitation experiments of endogenous proteins, 2 ×10^7 Rat-1 cells were lysed by sonication in PBS, and the immunoprecipitates were washed 4 times with PBS.

B1: endogenous RKIP of Rat-1 cells (other, rat (Rat-1 cells), UniProt P31044 2-187, looked up)
chain: AADISQWAGPLSLQEVDEPPQHALRVDYGGVTVDELGKVLTPTQVMNRPSSISWDGLDPGKLYTLVLTDPDAPSRKDPKFREWHHFLVVNMKGNDISSGTVLSEYVGSGPPKDTGLHRYVWLVYEQEQPLNCDEPILSNKSGDNRGKFKVESFRKKYHLGAPVAGTCFQAEWDDSVPKLHDQLAGK
notes: Endogenous protein in cell lysates
For B1, the binding result is listed as “binds”.
